Reference: article PMC11077089, “Molecular basis of A. thaliana KEOPS complex in biosynthesizing tRNA t6A”
Where a chain is given by its changes, count along the chain named.

Tests used:
[1] = target: T1, KAE1 mutant-2;BUD32;CGI121;PCC1 (Arabidopsis thaliana;Arabidopsis …, UniProt O49653;Q94K14;Q6NMZ4;Q8GWD7 1-353;1-226;1-172;1-96, G43E;F44R;L45K;P46R;R47D;E48K|||); assay: EMSA; conflicts with MST; MST: 20 mM PBS pH 7.5, 300 mM NaCl, 0.05% Tween 20, 25 C, 50 nM RNA; EMSA: 20 mM Tris-HCl pH 7.5, 300 mM NaCl, 5 mM b-mercaptoethanol, 20% glycerol, agarose gel in Tris-glycine pH 8.0 (8.5 for FAM-RNA), 4 C; conditions: protein: recombinant;recombinant;recombinant;recombinant; tags: ;none (6His on partner CGI121);6His (C-term);6His (C-term); chain copies: 2;2;2;2; label: 5' 6-FAM; tRNA cloverleaf
T1 sequence 1: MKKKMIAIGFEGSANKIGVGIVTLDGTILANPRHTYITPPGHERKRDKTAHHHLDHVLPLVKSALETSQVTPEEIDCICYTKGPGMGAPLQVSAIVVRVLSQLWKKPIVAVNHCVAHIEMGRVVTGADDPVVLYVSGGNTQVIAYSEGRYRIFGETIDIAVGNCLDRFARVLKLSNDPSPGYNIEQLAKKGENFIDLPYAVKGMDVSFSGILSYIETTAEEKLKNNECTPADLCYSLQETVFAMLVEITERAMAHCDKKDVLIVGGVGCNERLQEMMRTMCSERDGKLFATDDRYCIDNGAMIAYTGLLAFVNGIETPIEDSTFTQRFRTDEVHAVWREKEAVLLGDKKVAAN
T1 sequence 2: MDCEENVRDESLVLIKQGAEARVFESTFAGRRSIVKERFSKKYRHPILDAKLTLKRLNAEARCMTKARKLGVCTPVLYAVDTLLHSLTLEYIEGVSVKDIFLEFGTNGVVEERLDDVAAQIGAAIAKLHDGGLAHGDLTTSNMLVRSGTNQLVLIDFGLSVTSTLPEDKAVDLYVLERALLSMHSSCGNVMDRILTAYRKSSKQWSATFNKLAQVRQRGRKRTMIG
T1 sequence 3: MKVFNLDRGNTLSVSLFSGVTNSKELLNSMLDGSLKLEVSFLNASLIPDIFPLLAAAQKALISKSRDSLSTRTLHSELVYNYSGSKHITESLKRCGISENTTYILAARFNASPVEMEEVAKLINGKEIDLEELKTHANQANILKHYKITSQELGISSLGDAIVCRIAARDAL
T1 sequence 4: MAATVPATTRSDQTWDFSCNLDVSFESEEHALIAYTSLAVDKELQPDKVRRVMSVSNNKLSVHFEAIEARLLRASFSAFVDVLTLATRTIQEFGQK

KAE1;BUD32;PCC1 = target: T2, KAE1;BUD32;PCC1 (Arabidopsis thaliana;Arabidopsis …, UniProt O49653;Q94K14;Q8GWD7 1-353;1-226;1-96, ||); assay: MST; MST: 20 mM PBS pH 7.5, 300 mM NaCl, 0.05% Tween 20, 25 C, 50 nM RNA; EMSA: 20 mM Tris-HCl pH 7.5, 300 mM NaCl, 5 mM b-mercaptoethanol, 20% glycerol, agarose gel in Tris-glycine pH 8.0 (8.5 for FAM-RNA), 4 C; conditions: protein: recombinant;recombinant;recombinant; tags: none (6His on partner PCC1);none (6His on partner CGI121);6His (C-term); chain copies: 2;2;2; label: 5' 6-FAM; tRNA cloverleaf
T2 sequence 1: T1 sequence 1 with E43G, R44F, K45L, R46P, D47R, K48E
T2 sequence 2: T1 sequence 2
T2 sequence 3: T1 sequence 4

[2] = target: T3, KAE1;BUD32;CGI121;PCC1 R70D/R73D/A74E (Arabidopsis thaliana;Arabidopsis …, UniProt O49653;Q94K14;Q6NMZ4;Q8GWD7 1-353;1-226;1-172;1-96, |||R70D;R73D;A74E); assay: MST; KEOPS monomer; MST: 20 mM PBS pH 7.5, 300 mM NaCl, 0.05% Tween 20, 25 C, 50 nM RNA; EMSA: 20 mM Tris-HCl pH 7.5, 300 mM NaCl, 5 mM b-mercaptoethanol, 20% glycerol, agarose gel in Tris-glycine pH 8.0 (8.5 for FAM-RNA), 4 C; conditions: protein: recombinant;recombinant;recombinant;recombinant; tags: none (6His on partner PCC1);none (6His on partner CGI121);6His (C-term);6His (C-term); chain copies: 2;2;2;2; label: 5' 6-FAM; tRNA cloverleaf
T3 sequence 1: T1 sequence 1 with E43G, R44F, K45L, R46P, D47R, K48E
T3 sequence 2: T1 sequence 2
T3 sequence 3: T1 sequence 3
T3 sequence 4: T1 sequence 4 with R70D, R73D, A74E

CGI121 = target: T4, CGI121 (Arabidopsis thaliana, UniProt Q6NMZ4 1-172); assay: EMSA; MST: 20 mM PBS pH 7.5, 300 mM NaCl, 0.05% Tween 20, 25 C, 50 nM RNA; EMSA: 20 mM Tris-HCl pH 7.5, 300 mM NaCl, 5 mM b-mercaptoethanol, 20% glycerol, agarose gel in Tris-glycine pH 8.0 (8.5 for FAM-RNA), 4 C; conditions: protein: recombinant; tags: 6His (C-term); label: 5' 6-FAM; tRNA cloverleaf
T4 sequence: T1 sequence 3

B1: 5'-6FAM-tRNAArgCCU (structured_RNA)
RNA: GCGCCUGUAGCUCAGUGGAUAGAGCGUCUGUUUCCUAAGCAGAAGGUCGUAGGUUCGACCCCUACCUGGCGCGCCA
For B1, the binding result [1] was “binds”, the Kd (KAE1;BUD32;PCC1) was 38 ± 13.6 µM and the Kd [2] was 74.4 ± 13.5 µM. B1: no binding (CGI121).
